Values belong to the binder of their own block, whether it stands above or below them.
B1: GST-CHIP (carboxyl terminus of Hsp70 interacting protein, full length) (enzyme, human, UniProt Q9UNE7 1-303, looked up)
chain: MKGKEEKEGGARLGAGGGSPEKSPSAQELKEQGNRLFVGRKYPEAAACYGRAITRNPLVAVYYTNRALCYLKMQQHEQALADCRRALELDGQSVKAHFFLGQCQLEMESYDEAIANLQRAYSLAKEQRLNFGDDIPSALRIAKKKRWNSIEERRIHQESELHSYLSRLIAAERERELEECQRNHEGDEDDSHVRAQQACIEAKHDKYMADMDELFSQVDEKRKKRDIPDYLCGKISFELMREPCITPSGITYDRKDIEEHLQRVGHFDPVTRSPLTQEQLIPNLAMKEVIDAFISENGWVEDY

Key:
[1] = target: T1, Tau 2N4R isoform (full-length Tau) (human, UniProt P10636-8 1-441); assay: NMR titration
[2] = target: T1, Tau 2N4R isoform (full-length Tau); assay: ITC
[3] = target: B1; assay: NMR titration

Binder: B1
Kd [1]: 14 µM

Kd [2]: 360 µM
B2: isolated TPR domain of CHIP (domain or fragment, human)
chain: EKSPSAQELKEQGNRLFVGRKYPEAAACYGRAITRNPLVAVYYTNRALCYLKMQQHEQALADCRRALELDGQSVKAHFFLGQCQLEMESYDEAIANLQRAYSLAKEQRLNFGDDIPSALRIAKKKRWNSIEERR

binding result [3]: binds
B3: Tau1-152 (domain or fragment, human, UniProt P10636-8 1-152, looked up)
chain: MAEPRQEFEVMEDHAGTYGLGDRKDQGGYTMHQDQEGDTDAGLKESPLQTPTEDGSEEPGSETSDAKSTPTAEDVTAPLVDEGAPGKQAAAQPHTEIPEGTTAEEAGIGDTPSLEDEAAGHVTQARMVSKSKDGTGSDDKKAKGADGKTKIA

— paper PMC9303552 (Angewandte Chemie (International Ed. in English), 2022)
